{
  "source": "patent US20240218054A1",
  "about": "(MABLOC, published 2024)",
  "data": [
    {"biological_target": "T1, recombinant YFV E protein (soluble E, sE; YFV Asibi strain) (Yellow fever virus, Asibi strain, UniProt Q6DV88 286-678)", "T1 construct": "also called YFV E antigen; YFV E monomer", "T1 sequence (Q6DV88 286-678)": "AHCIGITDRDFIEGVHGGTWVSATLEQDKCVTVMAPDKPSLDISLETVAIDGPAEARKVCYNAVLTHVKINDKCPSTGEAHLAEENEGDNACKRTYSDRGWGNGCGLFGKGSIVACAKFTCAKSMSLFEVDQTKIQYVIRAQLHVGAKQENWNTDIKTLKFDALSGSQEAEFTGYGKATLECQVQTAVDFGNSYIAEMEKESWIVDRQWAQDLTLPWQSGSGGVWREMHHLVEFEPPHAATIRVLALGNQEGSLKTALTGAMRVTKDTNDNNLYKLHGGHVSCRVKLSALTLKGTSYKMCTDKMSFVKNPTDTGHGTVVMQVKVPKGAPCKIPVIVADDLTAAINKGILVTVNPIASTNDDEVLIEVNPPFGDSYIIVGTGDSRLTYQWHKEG", "experiment": "BLI monovalent (IgG on tip)", "units": {"Kd": "nM"}, "values": [
      {"binder": "ADI-46001 (antibody, V domains shown, full-length IgG; also called Antibody Number 52) VH: EVQLVESGGGLVKPGGSLRLSCAASGFTFSDYYMSWIRQAPGKGLEWVSYISSSGNTIYYADSVKGRFTISRDNAKNSLYLQLNSLRAGDTAVYYCARDSNYFYGLDVWGQGTTVTVSS VL: QPVLTQPPSVSVAPGQTARITCGGNNIGSKSVHWYQQKPGQAPMLVIYSNSDRPSGIPERFSGSNSGITATLTISRVEAGDEADYHCQVWDTSIDHHWVFGGGTKLTVL", "Kd": 6.17},
      {"binder": "ADI-42821 (antibody, V domains shown, full-length IgG; also called Antibody Number 49) VH: EVQLLESGGGLVPPGGSLRLSCAASGFTFSNYAMSWVRQAPGKGLEWVSAISGSGDSTYYADSVKGRFTLSRDTSKKMVYLHMSNLRDDDTAVYYCARDQGFTTDWPCDYWGQGTLVTVSS VL: DIVLTQSPSTLSASVGDRVTVTCRASQNINTYLAWYQQIPGKAPRLLIYRASSLESGVPSRFSGSGSGTEFTLTISSLQPDDFATYYCQHYNSFSVKFGQGTKVEIK", "Kd": 12.1},
      {"binder": "ADI-42191 (antibody, V domains shown, full-length IgG; also called Antibody Number 67) VH: EVQLVESGGGLVQPGGSLRLSCAASGFTFSDHYMDWVRQAPGKGLEWVGRTRNKPNSHTTEYAASVKGRFTISRDDSKNSLYLQMNSLQTEDTAVYYCARVYGGPDDYWGQGTLVTVSS VL: EIVMTQSPSSLSASVGDRVTITCRASQSIRSYLNWYQQKPGKAPKLLIYAASSLQSGVPLRFSGSGSGTDFTLTISSLQPEDFATYYCQQSSITPPTFGQGTKLEIK", "Kd": 2.13},
      {"binder": "ADI-45085 (antibody, V domains shown, full-length IgG; also called Antibody Number 57) VH: EVQLVESGGGLVQPGGSLRLSCAASGFTFSSYAMSWVRQAPGKGLEWVSTFSGRGGSTYYADFVKGRFTISRDNSKNTLYLQMNSLRAEDTAVYYCAKYYDSSGYYYFDYWGQGTLVTVSS VL: DIQLTQSPSTLSASVGDRVTITCRASQSISTWLAWYQQKPGKAPKLLIYRASSLESGVPSRFSASGSGTEFTLSISSLQPDDFATYYCKQYNRNPYTFGQGTKVEIK", "Kd": 152},
      {"binder": "ADI-50211 (antibody, V domains shown, full-length IgG; also called Antibody Number 62) VH: EVQLVESGGGLVQPGGSLRLSCAASGFTFSAYAMSWVRQAPGRGLEWVSAISGSDRRIYYADSVKGRFSISRDNSKNTLYLQMSSLRAEDTAVYYCAKYYDSSGYYYLDYWGQGTLVTVSS VL: DIQLTQSPSTLSASVGDRVTITCRASQSVSSWLAWYQQKPGKAPRLLIYRASSLESGVPSRFSGSGSGTEFTLTISSLQPDDFAAYYCQQYNRDPYTFGQGTKVEIK", "Kd": 20.8},
      {"binder": "ADI-48899 (antibody, V domains shown, full-length IgG; also called Antibody Number 68) VH: EVQLVESGGGLVQPGGSLRLSCAASGFIYTNYAMYWVRQAPGKGLEWVSAISGSGGITYYADSVKGRFTISRDNSKNTLYLQMNSLRAEDKAVYYCAKDGVTTINGWFHFEYWGQGTLVTVSS VL: DIQMTQSPSTLSASVGDRVTITCRASQSISSWLAWYQQKPGKAPKLLIYQASSLESGVPSRFSGSESGTEFTLTISSLQPDDFATYYCQQYNSFPFTFGPGTKVEIK", "Kd": 434},
      {"binder": "ADI-42849 (antibody, V domains shown, full-length IgG; also called Antibody Number 50) VH: QVQLVESGGGLVKPGGSLRLSCAASGFTFSDYYMSWIRQAPGKGLEWVSYITSSGNTMYYADSVKGRFTISRDNAKNSLYLQMNSLRAEDTAVYYCARDSNFNSNLDYWGQGTLVTVSS VL: SYELTQPPSVSVAPGQTARITCGGHNVGSKSVHWYQQKPGQAPVLVVYDDSDRPSGIPERFSGSNSGNTATLTISRVEAGDEADYYCQVWDSSSDHPWVFGGGTKVTVL", "Kd": 1.98},
      {"binder": "ADI-42847 (antibody, V domains shown, full-length IgG; also called Antibody Number 48) VH: EVQLLESGPRLVKPSETLSLTCTVSGGSVRGGSHYWSWIRQPPGKGLEWIGYVYDSGSTNYNPSLKSRVSISVDMSKKQFSLKLRSVTAADTAVYHCVRVEEYVNNEEVRDYWGQGTMVTVSS VL: DIVMTQTPATLSLSPGERATLSCRASQSVSSYLAWYQQKPGQAPRLLIYGASNRATGIPARFSGSGSGTDFTLTISSLEPEDFAVYYCLQRTNWPFTFGPGTKVEIK", "Kd": 3.21},
      {"binder": "ADI-49133 (antibody, V domains shown, full-length IgG; also called Antibody Number 6) VH: EVQLLESGGGLVQPGGSLRLSCAASGFTFRNYAMNWVRQTPGKGLEWVSGISGGGDSTNYADSVKGRFTISRDNSRNTLYLQLNSLRAEDTAVYYCAKDLAVSTPRYWFDSWGQGTLVTVSS VL: DIQMTQSPSSLSASVGDRVTITCRASQTISVDLNWYQHKPGKAPKLLIFAASTLQSGVPSRFSGSGSGTDFTLTIRSLQPEDFATYYCQQSYSIPRITFGQGTRLEIK", "Kd": 6.91},
      {"binder": "ADI-42154 (antibody, V domains shown, full-length IgG; also called Antibody Number 55) VH: EVQLVQSGGGLVQPGGSLRLSCAASGFTFSTYWMSWVRQAPGKGLEWVANIKQDGSEKYYVDSVKGRFTISRDNAKNSLYLQMNSLRAEDTAVYYCARDISCISTSCYGGYYYYGMDVWGQGTTVTVSS VL: not shown", "Kd": 164},
      {"binder": "ADI-49161 (antibody, V domains shown, full-length IgG; also called Antibody Number 54) VH: QVQLVQSGAEVKKPGASVKVSCKASGYTFNTYAMTWVRQAPGQGLEWMGWISTYNGNTVFGQKFQGRVTLSTDTSTSTAYMELRSLTSDDTAVYYCAREDDDYYSMDVWGQGTTVTVSS VL: QPVLTQPASVSGSPGQSITISCTGTSTDVGGYNYVSWYQQYPGKAPKLIIYDVTNRPSGVSHRFSGSKSGNTASLTISGLQAEDEADYYCSSYTTTSLVIFGGGTKLTVL", "Kd": 1.81},
      {"binder": "ADI-42233 (antibody, V domains shown, full-length IgG; also called Antibody Number 66) VH: EVQLVESGGGLVKPGGSLRLSCVASGFTFSRYSMNWVRQAPGKGLEWVSSISHSGRYIYYADSEKGRFTISRDNAKNSLYLQMNSLRAEDTAVYYCARDHYFDSSGDYLSYYYNGMDVWGQGTTVTVSS VL: ETTLTQSPGTLSLSPGERATLSCRASRSVSGNYLAWYQQKPGQAPRLLIYAASSRATGIPDRFSGGGSGTHFTLTISRLEPEDFAVYYCQQYGSSPRAFGQGTKVEIK", "Kd": 2.98},
      {"binder": "ADI-45154 (antibody, V domains shown, full-length IgG; also called Antibody Number 53) VH: EVQLVESGGGVVQPGRSLRLSCAASGFTFSNYGMHWVRQAPGKGLEWVAVISYDGSNKYYADSVKGRFTISRDDSKNTLYLQVNSLRAEDTAVYYCAKDICSGDCGGGDYWGQGTLVTVSS VL: QSVLIQPPSASGSPGQSVTISCTGTSSDVGGYNYVSWYQQHPGKAPKLMIYEVSKRPSGVPDRFSGSKSGNTASLTVSGLQAEDGADYYCSSYAGSNNWVVFGGGTKLTVL", "Kd": "> 100"},
      {"binder": "ADI-42230 (antibody, V domains shown, full-length IgG; also called Antibody Number 47) VH: QVQLVESGGGVVQPGRSLRLSCAASGFTFSSYAMHWVRQAPGKGLEWVAVISHDGSNKYYADSVKGRFTISRDNSKNTLYLQINSLRAEDTAVYYCPRDGLPGANQYFFYYGMDVWGQGTTVTVSS VL: DIQVTQSPSSLSASVGDRVTITCRASQGISNYLAWYQQKPGKVPKLLIFAASTLRSGVPSRFRGSGSGTDFTLTISSLQPEDVATYYCQKYNSAPLTFGGGTKVEIK", "Kd": 1.99},
      {"binder": "ADI-42211 (antibody, V domains shown, full-length IgG; also called Antibody Number 58) VH: QVQLVESGGGVVQPGRSLRLSCGGSGFTFSSYGMHWVRQAPGKGLEWVAVISYDGSKKYSADSVKGRFTISRDNSKNTLYLQMNSLRAEDTAVYYCAKGSVSVAGAEDYWGQGTLVTVSS VL: DIQMTQSPSSLSASVGDRVTITCRASQGISSYLAWFQQKPGKVPKLLIYAASTLQSGVPSRFSGSGSGTDFTLTISSLQPEDVATYYCQKYNSAPQTFGQGTKVDIK", "Kd": 1.64},
      {"binder": "ADI-42199 (antibody, V domains shown, full-length IgG; also called Antibody Number 63) VH: EVQLVESGGGLVQPGGSLRLSCAASGFTFSDHYMAWVRQAPGKGLEWVGRIRNKPNSYTTEYAASVKGRFTISRHDSENSLYLQMNSLKTEDTAVYYCCRESGEGFDPWGQGTLVTVSS VL: SYELTQLPSVSVSPGQTARVTCSGDALQYVYWYQQKPGQAPVVVIYKDTERPSGIPERFSGSSSGTTVTLTITGVQAEDEADYYCQSADRSGSVIFGGGTKVTVL", "Kd": 0.7},
      {"binder": "ADI-48908 (antibody, V domains shown, full-length IgG; also called Antibody Number 59) VH: EVQLLESGGGLVQPGRSLRLSCAVSGFTFAEYAMHWVRQAPGKGLEWVSSISWNSGRIGYVDSVRGRFTISRDNAKNSLYLQMNSLRVEDTAFYYCAKGYDSSGYYWADYWGQGTLVTVSS VL: EIVMTQSPATLSVSPGERATLSCRASQSVSFNLAWYQQKPGQAPRLLISRASTRAAGVPARFSGSGSGTEFTLTISSLQSEDFAVYYCQQYNNWPPLTFGGGTKLEIK", "Kd": 1.76},
      {"binder": "ADI-45140 (antibody, V domains shown, full-length IgG; also called Antibody Number 61) VH: EVQLLESGGGLVHPGGSLRLSCAASGFTFSDYEMNWVRQAPGKGLEWVSHISSSGNIIYYADSVKGRFTISRDNAKDSLYLQMNSLRAEDTAVYYCAATIFGVVSFDYWGQGTLVTVSS VL: QSVLTQPPSVSAAPGQKVTISCSGSSSNIGNNYVSWYQQLPGTAPKVLIYDNNKRPSGIPDRFSGSKSGTSATLGITGLQTGDEADYYCGTWDSALGAAVFGGGTKLTVL", "Kd": 4.6},
      {"binder": "ADI-48916 (antibody, V domains shown, full-length IgG; also called Antibody Number 56) VH: EVQLVESGGGVVQPGRSLRLSCAASGFTFSNSGMHWVRQAPGKGLEWVAVIWYDSRNQNYADSVKGRFTISRDNSKNTLFLQMNSLRAEDTAVYYCARDYYASGDGSIDYWGQGTLVTVSS VL: DIQVTQSPSSLSASVGGRVTITCRASQGIRNDLGWYQRKPGKAPKRLIYAASSLQSGVPSRFSGSGSGTEFTLTISSLQPEDFATYYCLQHNSYPLTFGGGTKVDIK", "Kd": 393},
      {"binder": "ADI-45097 (antibody, V domains shown, full-length IgG; also called Antibody Number 5) VH: EVQLVESGGGVVQPGRSLRLSCAASGFTFNSHGMHWVRQAPGKGLEWVAVISYDGTKKYFADSVKGRFTISRDNSKNTLYLQMSSLRADDTAVYYCAKDSSTSWYQVVYHIDYWGQGTLVTVSS VL: QSVVTQPPSVSAAPGQKVTISCSGSSSNIGNNYVAWYQQLPGRAPKLLIHDNKKRPSGIPDRFSGSASGTSATLGITGLQTGDEADYYCETWDSSLNAVVFGGGTKLTVL", "Kd": 1.62},
      {"binder": "ADI-48913 (antibody, V domains shown, full-length IgG; also called Antibody Number 60) VH: EVQLLESGPGLVKPSETLSLTCTVSGGSISSYYWSWIRQPAGKGLELIGRIYTSGSGNYNPSLKRRVTMSVDTSKNQISLRLNSVTAADTAVYYCARERGGYFTEPFDIWGQGTMVTVSS VL: not shown", "Kd": 186},
      {"binder": "ADI-42231 (antibody, V domains shown, full-length IgG; also called Antibody Number 64) VH: QVQLVQSGAEVKKPGASVKVSCKASGYSFTTYGISWVRQAPGQGLEWMGWISGYSGDTNYAQKVQGRVTMTTDTSTSTAYMELRSLRSDDTAVYYCARDQSHGTFGGVIDSTTLFYYYGMDVWGQGTTVTVSS VL: DIVMTQSPATLSLSPGERATLSCRASQSVSSYLAWYQQKPGQAPRLLIYDASNRATGIPARFSGSGSGTDFTLTISSLEPEDFAVYYCQQRSNWPSFGQGTKLEIK", "Kd": 42.1},
      {"binder": "ADI-45164 (antibody, V domains shown, full-length IgG; also called Antibody Number 65) VH: EVQLQESGPGLVKPSETLSLTCTVSGGSISSSSYYWGWIRQPPGKGLEWIGSIYYSGSTYYNPSLKSRVTISVDTSKNQFSLKLSSVTAADTAVYYCARGYCSSTSCFYYYYGMDVWGQGTTVTVSS VL: not shown", "Kd": "> 100"}
    ]}
  ]
}
